Here are results for 4 molecules from PMC4988710, “A Model for Dimerization of the SOX Group E Transcription Factor Family”.

As a reminder, the Kd is the free concentration of one partner at which half of the binding sites on the other are occupied at equilibrium, for simple one-to-one binding.

The target in data set [1] is T1, SOX9 D-HMG (high solubility variant) (Homo sapiens) (UniProt P48436).
T1 sequence: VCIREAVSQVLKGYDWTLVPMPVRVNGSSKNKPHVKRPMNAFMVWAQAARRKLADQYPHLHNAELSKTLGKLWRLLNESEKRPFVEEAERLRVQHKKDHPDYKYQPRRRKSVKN
As to the kind of experiment: EMSA. The conditions noted are these: 10 mM sodium phosphate pH 6.0, 100 mM NaCl, 5 mM EDTA, on ice 30 min (1 h for 32P titrations); 9 nM DNA for Kd, 2 uM DNA for SYBR Green EMSA.

The target in data set [2] is T2, SOX9 HMG (Homo sapiens, UniProt P48436 110-184). Put plainly: EMSA; Hill 1.6 ± 0.5; 10 mM sodium phosphate pH 6.0, 100 mM NaCl, 5 mM EDTA, on ice 30 min (1 h for 32P titrations); 9 nM DNA for Kd, 2 uM DNA for SYBR Green EMSA. The conditions noted are these: protein: recombinant; tags: 6xHis; label: 32P 5'; blunt. In general terms: Mobility shift assays separate free from complexed probe on a gel.

The target in data set [3] is T2, SOX9 HMG. As to the kind of experiment: EMSA; Hill 2.2 ± 0.4; 10 mM sodium phosphate pH 6.0, 100 mM NaCl, 5 mM EDTA, on ice 30 min (1 h for 32P titrations); 9 nM DNA for Kd, 2 uM DNA for SYBR Green EMSA. As to conditions: protein: recombinant; tags: 6xHis; label: 32P 5' for Kd; unlabeled (SYBR Green) in mutant EMSA; blunt; self-complementary, 2 copies of one strand.

The target in a further data set is SOX9 D-HMG L142Q (Homo sapiens, UniProt P48436 71-184, L142Q). Put plainly: EMSA; dimerization lost; single and double occupancy bands; 10 mM sodium phosphate pH 6.0, 100 mM NaCl, 5 mM EDTA, on ice 30 min (1 h for 32P titrations); 9 nM DNA for Kd, 2 uM DNA for SYBR Green EMSA. As to conditions: protein: recombinant; tags: 6xHis; chain copies: 2; label: 32P 5' for Kd; unlabeled (SYBR Green) in mutant EMSA; blunt; self-complementary, 2 copies of one strand.

The target in a further data set is SOX9 D-HMG A119E (Homo sapiens, UniProt P48436 71-184, A119E). The data set is described as above. As to conditions: protein: recombinant; tags: 6xHis; chain copies: 2; label: 32P 5' for Kd; unlabeled (SYBR Green) in mutant EMSA; blunt; self-complementary, 2 copies of one strand.
The target of another data set is SOX9 D-HMG L145E (Homo sapiens, UniProt P48436 71-184, L145E). Put plainly: EMSA; dimerization retained; 10 mM sodium phosphate pH 6.0, 100 mM NaCl, 5 mM EDTA, on ice 30 min (1 h for 32P titrations); 9 nM DNA for Kd, 2 uM DNA for SYBR Green EMSA. The conditions noted are these: protein: recombinant; tags: 6xHis; chain copies: 2; label: 32P 5' for Kd; unlabeled (SYBR Green) in mutant EMSA; blunt; self-complementary, 2 copies of one strand.

In another data set the target is SOX9 D-HMG A118E (Homo sapiens, UniProt P48436 71-184, A118E). Described as above. The conditions noted are these: protein: recombinant; tags: 6xHis; chain copies: 2; label: 32P 5' for Kd; unlabeled (SYBR Green) in mutant EMSA; blunt; self-complementary, 2 copies of one strand.

Molecule “GGGATCCTACACAAAGCCGGCTTTGTGTAGGATCCC (double strand) [CC36]” showed a Kd in data set [1] of 98 nM.

“GGGTTAACAGAACAATGGAATCTGGTAGA (double strand) [S9WT]” registered a Kd in data set [1] of 82 nM.

B1: S9WT (dsDNA)
DNA 1: GGGTTAACAGAACAATGGAATCTGGTAGA
DNA 2: TCTACCAGATTCCATTGTTCTGTTAACCC
As for B1, the Kd with SOX9 HMG [2] stood at 101 ± 33 nM.

B2: CC36 (dsDNA)
DNA 1: GGGATCCTACACAAAGCCGGCTTTGTGTAGGATCCC
DNA 2: B2 DNA 1
As to B2, the Kd with SOX9 HMG [3] turned out to be 109 ± 10 nM. The binding result with SOX9 D-HMG L142Q, in the data set with SOX9 D-HMG A119E, with SOX9 D-HMG L145E and in the data set with SOX9 D-HMG A118E was “binds” throughout.
